B1: Recombinant Mdm36, His6-T7-Mdm36 (natural protein)
chain: MDENGTVKPGYELKGLNSGNSRSNMDKDPIVSKFHRAGLNDSADEEDTDINGNRNTSWITSMISEEKRKVEGKSMLNDEEDLHLSKATLNKCDALVKILADIIKLEFVIHQSWYIRSLHKSVLIQFEVETSGGNKNSAGDSGDDDDDNHNGNLDDSFYKDLSLKCIKKCEKSSLALESLSRDIDQIRDFIMSNTIEDNRVDRLLQNSMTLLLECWIYSMKRLRRLRMKIAGIFVRSKLLLIDHELVTIWHFLQEQNEHETVNNENELKLAETIKSYRAFIKIFIQQLEDSESGSPSSSLFEECLHVFLDIESMYNSLNLNWLLNENKALQERLLSPSSTSENDHTNNLPVIDETKEIEDISSFVNSIVDASMLTHDLTPINSSDSDNLSNGEIDRLDGRRLSSSTSDMSLMMQRTSLQKQLPSLLTAFNNARRLEQELQNACKVNDNKHSTKDTDSNIRRNEHAMSSSVSSIISQNSTLASPSPPMSSSFISTAPSQSSSRMSTLPLSPSSSLLESQSQTLKNNMSQWLNQSRSGLNGTKLIPTNHIGFHSNVLNTLYGIGGGPVSKSYKSNQPSSQNT

Legend:
[1] = target: the molecule itself; assay: SEC-MALS
[2] = target: B1; assay: co-sedimentation

| binding result [2] | Binder | stoichiometry N [1] |
| --- | --- | --- |
| – | B1 | 2 |
| binds | Recombinant Num1CC (amino acids 97-294), His6-T7-Num1CC (domain or fragment) MNFTLELSENLLVECRKLQSSNEAKNEQIKSLKQIKESLSDKIEELTNQKKSFMKELDSTKDLNWDLESKLTNLSMECRQLKELKKKTEKSWNDEKESLKLLKTDLEILTLTKNGMENDLSSQKLHYDKEISELKERILDLNNENDRLLISVSDLTSEINSLQSNRTERIKIQKQLDDAKASISSLKRKVQKKYYQKQ | 2 |
| binds | Recombinant Num1CC^3E (K121E + R262E + R265E), His6-T7-Num1CC^3E (domain or fragment) MNFTLELSENLLVECRKLQSSNEAENEQIKSLKQIKESLSDKIEELTNQKKSFMKELDSTKDLNWDLESKLTNLSMECRQLKELKKKTEKSWNDEKESLKLLKTDLEILTLTKNGMENDLSSQKLHYDKEISELKERILDLNNENDRLLISVSDLTSEINSLQSNETEEIKIQKQLDDAKASISSLKRKVQKKYYQKQ | – |

Reference: paper PMC4896055 (The Journal of Cell Biology, 2016)
